Data reported in patent US4885277A, “Anticoagulant therapy” (Oklahoma Medical Research Foundation, priority 1987, dated 1989).

System: endothelial cellular receptors for Factor IX (cultured bovine aortic endothelial cells)
Assay: Competitive binding of [125I]-Factor IX to cultured bovine aortic endothelial cells
Conditions: cultured bovine aortic endothelial cells, 4-5 hours at 4° C.; mean, SEM less than 20%; read-out: Inhibitory Constant, inhibition of binding of [125I]-Factor IX
Description: The purified peptides were tested for their ability to block the binding of bovine Factor IX and IXa to cultured bovine aortic endothelial cells. Bovine Factor IX and IXa for these studies were prepared and radioiodinated (using Na^125 I and the solid state lactoperoxidase technique) using methods described by Stern, et al. (J. Biol. Chem. 260, pp. 6717-6722 [1985]). Bovine aortic endothelial cells were obtained from the aortae of newborn calves as described by Stern, et al. (Proc. Natl. Acad. Sci. U.S.A., 80, pp. 4119-4123 [1983]). These endothelial cells were grown to confluence (1.3×10^5 cells/cm^2) in culture dishes. Binding assays were carried out by incubating either ^125 I-Factor IX or ^125 I-Factor IXa with endothelial cell monolayers in the presence of varying concentrations of one of the peptides. The buffer used in these experiments was Minimal Essential Medium containing 0.5 mg/ml transferring, and the incubation time was 4-5 hours at 4° C. At the end of the incubation period, the cultures were washed to remove unbound material. Then, specifically bound [^125 I]-Factor IX or [^125 I]-Factor IXa was eluted during exposure to EDTA-containing buffer as described by Stern, et al. (Proc. Natl. Acad. Sci. U.S.A., 80, pp. 4119-4123 [1983].

B1: Factor IX: bovine Factor IX, Vitamin K-dependent plasma glycoprotein, used as competitor (protein, UniProt P00741 26-462, looked up)
Coagulation factor IX: AECTVFLDRENATKILHRPKRYNSGKLEEFVRGNLERECKEEKCSFEEAREVFENTEKTTEFWKQYVDGDQCESNPCLNGGMCKDDINSYECWCQAGFEGTNCELDATCSIKNGRCKQFCKRDTDNKVVCSCTDGYRLAEDQKSCEPAVPFPCGRVSVSHISKKLTRAETIFSNTNYENSSEAEIIWDNVTQSNQSFDEFSRVVGGEDAERGQFPWQVLLHGEIAAFCGGSIVNEKWVVTAAHCIKPGVKITVVAGEHNTEKPEPTEQKRNVIRAIPYHSYNASINKYSHDIALLELDEPLELNSYVTPICIADRDYTNIFLKFGYGYVSGWGKVFNRGRSASILQYLKVPLVDRATCLRSTKFSIYSHMFCAGYHEGGKDSCQGDSGGPHVTEVEGTSFLTGIISWGEECAMKGKYGIYTKVSRYVNWIKEKTKLT
Q: For B1, which Ki is on record?
A: 3 nM
